The results in this text go back to patent US20240400708A1.

Assay [1] concerns the target feline FcRn complex (FcRn-α subunit and β-microglobulin), biotin labeled (feline). Description: SPR, pH 7.4.
Assay [2] shares this target. Description: SPR, pH 6.

B1: feline IgG1a S252F/S434H (antibody, part only; not given: Variable domains, not shown: another chain or arm of the molecule)
constant: ASTTAPSVFPLAPSCGTTSGATVALACLVLGYFPEPVTVSWNSGALTSGVHTFPAVLQASGLYSLSSMVTVPSSRWLSDTFTCNVAHPPSNTKVDKTVRKTDHPPGPKPCDCPKCPPPEMLGGPSIFIFPPKPKDTLFISRTPEVTCLVVDLGPDDSDVQITWFVDNTQVYTAKTSPREEQFNSTYRVVSVLPILHQDWLKGKEFKCKVNSKSLPSPIERTISKAKGQPHEPQVYVLPPAQEELSRNKVSVTCLIKSFHPPDIAVEWEITGQPEPENNYRTTPPQLDSDGTYFVYSKLSVDRSHWQRGNTYTCSVSHEALHHHHTQKSLTQSPGK
As for B1, the Kd came to 18.1 nM in assay [1] and 1.69 nM in assay [2].

B2: feline IgG1a S252R/S434H (antibody, part only; not given: Variable domains, not shown: another chain or arm of the molecule)
constant: ASTTAPSVFPLAPSCGTTSGATVALACLVLGYFPEPVTVSWNSGALTSGVHTFPAVLQASGLYSLSSMVTVPSSRWLSDTFTCNVAHPPSNTKVDKTVRKTDHPPGPKPCDCPKCPPPEMLGGPSIFIFPPKPKDTLRISRTPEVTCLVVDLGPDDSDVQITWFVDNTQVYTAKTSPREEQFNSTYRVVSVLPILHQDWLKGKEFKCKVNSKSLPSPIERTISKAKGQPHEPQVYVLPPAQEELSRNKVSVTCLIKSFHPPDIAVEWEITGQPEPENNYRTTPPQLDSDGTYFVYSKLSVDRSHWQRGNTYTCSVSHEALHHHHTQKSLTQSPGK
Turning to B2, the equilibrium dissociation constant (Kd) in assay [1] worked out at 41.3 nM; in assay [2], 2.21 nM.

B3: feline IgG1a S254I (antibody, part only; not given: Variable domains, not shown: another chain or arm of the molecule)
constant: ASTTAPSVFPLAPSCGTTSGATVALACLVLGYFPEPVTVSWNSGALTSGVHTFPAVLQASGLYSLSSMVTVPSSRWLSDTFTCNVAHPPSNTKVDKTVRKTDHPPGPKPCDCPKCPPPEMLGGPSIFIFPPKPKDTLSIIRTPEVTCLVVDLGPDDSDVQITWFVDNTQVYTAKTSPREEQFNSTYRVVSVLPILHQDWLKGKEFKCKVNSKSLPSPIERTISKAKGQPHEPQVYVLPPAQEELSRNKVSVTCLIKSFHPPDIAVEWEITGQPEPENNYRTTPPQLDSDGTYFVYSKLSVDRSHWQRGNTYTCSVSHEALHSHHTQKSLTQSPGK
On to B3, for which the Kd in assay [1] worked out at 16100 nM; in assay [2], 12.4 nM.

B4: feline IgG1a S252R (antibody, part only; not given: Variable domains, not shown: another chain or arm of the molecule)
constant: ASTTAPSVFPLAPSCGTTSGATVALACLVLGYFPEPVTVSWNSGALTSGVHTFPAVLQASGLYSLSSMVTVPSSRWLSDTFTCNVAHPPSNTKVDKTVRKTDHPPGPKPCDCPKCPPPEMLGGPSIFIFPPKPKDTLRISRTPEVTCLVVDLGPDDSDVQITWFVDNTQVYTAKTSPREEQFNSTYRVVSVLPILHQDWLKGKEFKCKVNSKSLPSPIERTISKAKGQPHEPQVYVLPPAQEELSRNKVSVTCLIKSFHPPDIAVEWEITGQPEPENNYRTTPPQLDSDGTYFVYSKLSVDRSHWQRGNTYTCSVSHEALHSHHTQKSLTQSPGK
With B4, the figures for the Kd in assay [1] and in assay [2] were 5.06 nM and 1.48 nM, respectively.

B5: feline IgG1a D312P/S434Y (antibody, part only; not given: Variable domains, not shown: another chain or arm of the molecule)
constant: ASTTAPSVFPLAPSCGTTSGATVALACLVLGYFPEPVTVSWNSGALTSGVHTFPAVLQASGLYSLSSMVTVPSSRWLSDTFTCNVAHPPSNTKVDKTVRKTDHPPGPKPCDCPKCPPPEMLGGPSIFIFPPKPKDTLSISRTPEVTCLVVDLGPDDSDVQITWFVDNTQVYTAKTSPREEQFNSTYRVVSVLPILHQPWLKGKEFKCKVNSKSLPSPIERTISKAKGQPHEPQVYVLPPAQEELSRNKVSVTCLIKSFHPPDIAVEWEITGQPEPENNYRTTPPQLDSDGTYFVYSKLSVDRSHWQRGNTYTCSVSHEALHYHHTQKSLTQSPGK
With B5, the Kd in assay [1] was determined as 1800 nM; in assay [2], 22.6 nM.

B6: feline IgG1a Q311W/L314K (antibody, part only; not given: Variable domains, not shown: another chain or arm of the molecule)
constant: ASTTAPSVFPLAPSCGTTSGATVALACLVLGYFPEPVTVSWNSGALTSGVHTFPAVLQASGLYSLSSMVTVPSSRWLSDTFTCNVAHPPSNTKVDKTVRKTDHPPGPKPCDCPKCPPPEMLGGPSIFIFPPKPKDTLSISRTPEVTCLVVDLGPDDSDVQITWFVDNTQVYTAKTSPREEQFNSTYRVVSVLPILHWDWKKGKEFKCKVNSKSLPSPIERTISKAKGQPHEPQVYVLPPAQEELSRNKVSVTCLIKSFHPPDIAVEWEITGQPEPENNYRTTPPQLDSDGTYFVYSKLSVDRSHWQRGNTYTCSVSHEALHSHHTQKSLTQSPGK
As to B6, the Kd came to 55.8 nM in assay [1] and 3.47 nM in assay [2].

B7: feline IgG1a S252Y/S434H (antibody, part only; not given: Variable domains, not shown: another chain or arm of the molecule)
constant: ASTTAPSVFPLAPSCGTTSGATVALACLVLGYFPEPVTVSWNSGALTSGVHTFPAVLQASGLYSLSSMVTVPSSRWLSDTFTCNVAHPPSNTKVDKTVRKTDHPPGPKPCDCPKCPPPEMLGGPSIFIFPPKPKDTLYISRTPEVTCLVVDLGPDDSDVQITWFVDNTQVYTAKTSPREEQFNSTYRVVSVLPILHQDWLKGKEFKCKVNSKSLPSPIERTISKAKGQPHEPQVYVLPPAQEELSRNKVSVTCLIKSFHPPDIAVEWEITGQPEPENNYRTTPPQLDSDGTYFVYSKLSVDRSHWQRGNTYTCSVSHEALHHHHTQKSLTQSPGK
For B7, the Kd is 11.7 nM in assay [1] and 0.774 nM in assay [2].

B8: feline IgG1a S254C (antibody, part only; not given: Variable domains, not shown: another chain or arm of the molecule)
constant: ASTTAPSVFPLAPSCGTTSGATVALACLVLGYFPEPVTVSWNSGALTSGVHTFPAVLQASGLYSLSSMVTVPSSRWLSDTFTCNVAHPPSNTKVDKTVRKTDHPPGPKPCDCPKCPPPEMLGGPSIFIFPPKPKDTLSICRTPEVTCLVVDLGPDDSDVQITWFVDNTQVYTAKTSPREEQFNSTYRVVSVLPILHQDWLKGKEFKCKVNSKSLPSPIERTISKAKGQPHEPQVYVLPPAQEELSRNKVSVTCLIKSFHPPDIAVEWEITGQPEPENNYRTTPPQLDSDGTYFVYSKLSVDRSHWQRGNTYTCSVSHEALHSHHTQKSLTQSPGK
Take B8: the values for the Kd in assay [1] and in assay [2] were 2160 nM and 44 nM, respectively.

B9: feline IgG1a T256F (antibody, part only; not given: Variable domains, not shown: another chain or arm of the molecule)
constant: ASTTAPSVFPLAPSCGTTSGATVALACLVLGYFPEPVTVSWNSGALTSGVHTFPAVLQASGLYSLSSMVTVPSSRWLSDTFTCNVAHPPSNTKVDKTVRKTDHPPGPKPCDCPKCPPPEMLGGPSIFIFPPKPKDTLSISRFPEVTCLVVDLGPDDSDVQITWFVDNTQVYTAKTSPREEQFNSTYRVVSVLPILHQDWLKGKEFKCKVNSKSLPSPIERTISKAKGQPHEPQVYVLPPAQEELSRNKVSVTCLIKSFHPPDIAVEWEITGQPEPENNYRTTPPQLDSDGTYFVYSKLSVDRSHWQRGNTYTCSVSHEALHSHHTQKSLTQSPGK
As to B9, the Kd stood at 427 nM in assay [1] and 50.3 nM in assay [2].

B10: feline IgG1a S434R (antibody, part only; not given: Variable domains, not shown: another chain or arm of the molecule)
constant: ASTTAPSVFPLAPSCGTTSGATVALACLVLGYFPEPVTVSWNSGALTSGVHTFPAVLQASGLYSLSSMVTVPSSRWLSDTFTCNVAHPPSNTKVDKTVRKTDHPPGPKPCDCPKCPPPEMLGGPSIFIFPPKPKDTLSISRTPEVTCLVVDLGPDDSDVQITWFVDNTQVYTAKTSPREEQFNSTYRVVSVLPILHQDWLKGKEFKCKVNSKSLPSPIERTISKAKGQPHEPQVYVLPPAQEELSRNKVSVTCLIKSFHPPDIAVEWEITGQPEPENNYRTTPPQLDSDGTYFVYSKLSVDRSHWQRGNTYTCSVSHEALHRHHTQKSLTQSPGK
Turning to B10, the Kd turned out to be 16.3 nM in assay [1] and 1.19 nM in assay [2].

B11: feline IgG1a S254V (antibody, part only; not given: Variable domains, not shown: another chain or arm of the molecule)
constant: ASTTAPSVFPLAPSCGTTSGATVALACLVLGYFPEPVTVSWNSGALTSGVHTFPAVLQASGLYSLSSMVTVPSSRWLSDTFTCNVAHPPSNTKVDKTVRKTDHPPGPKPCDCPKCPPPEMLGGPSIFIFPPKPKDTLSIVRTPEVTCLVVDLGPDDSDVQITWFVDNTQVYTAKTSPREEQFNSTYRVVSVLPILHQDWLKGKEFKCKVNSKSLPSPIERTISKAKGQPHEPQVYVLPPAQEELSRNKVSVTCLIKSFHPPDIAVEWEITGQPEPENNYRTTPPQLDSDGTYFVYSKLSVDRSHWQRGNTYTCSVSHEALHSHHTQKSLTQSPGK
With B11, the Kd was determined as 49800 nM in assay [1] and 9.91 nM in assay [2].

B12: feline IgG1a S254P (antibody, part only; not given: Variable domains, not shown: another chain or arm of the molecule)
constant: ASTTAPSVFPLAPSCGTTSGATVALACLVLGYFPEPVTVSWNSGALTSGVHTFPAVLQASGLYSLSSMVTVPSSRWLSDTFTCNVAHPPSNTKVDKTVRKTDHPPGPKPCDCPKCPPPEMLGGPSIFIFPPKPKDTLSIPRTPEVTCLVVDLGPDDSDVQITWFVDNTQVYTAKTSPREEQFNSTYRVVSVLPILHQDWLKGKEFKCKVNSKSLPSPIERTISKAKGQPHEPQVYVLPPAQEELSRNKVSVTCLIKSFHPPDIAVEWEITGQPEPENNYRTTPPQLDSDGTYFVYSKLSVDRSHWQRGNTYTCSVSHEALHSHHTQKSLTQSPGK
Take B12: the Kd in assay [1] is 5690 nM; in assay [2] it was 27.3 nM.

B13: feline IgG1a Q311W/D312P (antibody, part only; not given: Variable domains, not shown: another chain or arm of the molecule)
constant: ASTTAPSVFPLAPSCGTTSGATVALACLVLGYFPEPVTVSWNSGALTSGVHTFPAVLQASGLYSLSSMVTVPSSRWLSDTFTCNVAHPPSNTKVDKTVRKTDHPPGPKPCDCPKCPPPEMLGGPSIFIFPPKPKDTLSISRTPEVTCLVVDLGPDDSDVQITWFVDNTQVYTAKTSPREEQFNSTYRVVSVLPILHWPWLKGKEFKCKVNSKSLPSPIERTISKAKGQPHEPQVYVLPPAQEELSRNKVSVTCLIKSFHPPDIAVEWEITGQPEPENNYRTTPPQLDSDGTYFVYSKLSVDRSHWQRGNTYTCSVSHEALHSHHTQKSLTQSPGK
As to B13, the values for the Kd in assay [1] and in assay [2] were 50.3 nM and 2.76 nM, respectively.

B14: feline IgG1a Q311W/D312P/S434Y (antibody, part only; not given: Variable domains, not shown: another chain or arm of the molecule)
constant: ASTTAPSVFPLAPSCGTTSGATVALACLVLGYFPEPVTVSWNSGALTSGVHTFPAVLQASGLYSLSSMVTVPSSRWLSDTFTCNVAHPPSNTKVDKTVRKTDHPPGPKPCDCPKCPPPEMLGGPSIFIFPPKPKDTLSISRTPEVTCLVVDLGPDDSDVQITWFVDNTQVYTAKTSPREEQFNSTYRVVSVLPILHWPWLKGKEFKCKVNSKSLPSPIERTISKAKGQPHEPQVYVLPPAQEELSRNKVSVTCLIKSFHPPDIAVEWEITGQPEPENNYRTTPPQLDSDGTYFVYSKLSVDRSHWQRGNTYTCSVSHEALHYHHTQKSLTQSPGK
B14: the results for the Kd in assay [1] and in assay [2] were 37.7 nM and 1.53 nM, respectively.

B15: feline IgG1a L314K/S434Y (antibody, part only; not given: Variable domains, not shown: another chain or arm of the molecule)
constant: ASTTAPSVFPLAPSCGTTSGATVALACLVLGYFPEPVTVSWNSGALTSGVHTFPAVLQASGLYSLSSMVTVPSSRWLSDTFTCNVAHPPSNTKVDKTVRKTDHPPGPKPCDCPKCPPPEMLGGPSIFIFPPKPKDTLSISRTPEVTCLVVDLGPDDSDVQITWFVDNTQVYTAKTSPREEQFNSTYRVVSVLPILHQDWKKGKEFKCKVNSKSLPSPIERTISKAKGQPHEPQVYVLPPAQEELSRNKVSVTCLIKSFHPPDIAVEWEITGQPEPENNYRTTPPQLDSDGTYFVYSKLSVDRSHWQRGNTYTCSVSHEALHYHHTQKSLTQSPGK
For B15, the Kd in assay [1] turned out to be 7430 nM; in assay [2], 244 nM.
